This sample holds only a part of the variants without activity.
B1: TPR 5TU (parent)
chain: GGAUCUUCUCGAUCUAACAAAAAAGACAAAUCUGCCACAAAGCUUGAGAGCAUCUUCGGAUGCAGAGGCGGCAGCCUUCGGUGGCGCGAUAGCGCCAACGUUCUCAACUAUGACACGCAAAACGCGUGCUCCGUUGAAUGGAGUUUAUCAUG

Variants of: B1
Experiment: polymerase ribozyme fitness, log enrichment relative to wild type (log ratio); higher = more active; in vitro selection for triplet polymerase activity
Method in brief: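 Fitness is a logarithmic measure of how a genotype enriched relative to the wild type, with replicate averages weighted by inverse variance. The logarithm uses base 2, and enrichment came from Illumina sequencing of input and output libraries. Those libraries were PCR-built, transcribed mutants of each subunit of a heterodimeric triplet polymerase ribozyme, passed through one triplicate in vitro selection round that included frozen incubation at −7 °C, gel excision of extended constructs and streptavidin-bead capture. Genotypes were kept only if they had ≥10 input reads and ≥1 read per output.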
In the case of C38G G86U C118U, the “polymerase ribozyme fitness (log ratio)” value is reported as -2.
For U77G G84C U148G, the “polymerase ribozyme fitness (log ratio)” value was no more than -4.2.
In the case of G74C A147C, the “polymerase ribozyme fitness (log ratio)” value is reported as -4.06.
In the case of C87G C93U C99A U134G G141U, the “polymerase ribozyme fitness (log ratio)” value is reported as no more than -4.2.
In the case of C85A U102G A121G A122C, the “polymerase ribozyme fitness (log ratio)” value is reported as no more than -4.2.
With C54A C96U A113G the “polymerase ribozyme fitness (log ratio)” value was -3.11.
With U56A U61A the “polymerase ribozyme fitness (log ratio)” value was -1.51.
With C76U U78C A106C the “polymerase ribozyme fitness (log ratio)” value was -1.92.
In the case of C27G C75G C93A C103G U134A, the “polymerase ribozyme fitness (log ratio)” value is reported as no more than -4.2.
With C10U C76U A91U C95A A113U A120U the “polymerase ribozyme fitness (log ratio)” value was no more than -4.2.
For A39G C96U C116U, the “polymerase ribozyme fitness (log ratio)” value was -1.75.
With U53G G59U C125U G141C the “polymerase ribozyme fitness (log ratio)” value was -3.86.
With A20C A22C A39G G71A C85A G94C the “polymerase ribozyme fitness (log ratio)” value was no more than -4.2.
With A52G C57U C75G A91U C95G C123A the “polymerase ribozyme fitness (log ratio)” value was -4.05.
With G68U G136A the “polymerase ribozyme fitness (log ratio)” value was -3.9.
With C54A C105G U130C the “polymerase ribozyme fitness (log ratio)” value was -2.7.
For C93U G152A, the “polymerase ribozyme fitness (log ratio)” value was -3.11.
In the case of C38U C95G A120U G152A, the “polymerase ribozyme fitness (log ratio)” value is reported as -3.59.
In the case of A52G, the “polymerase ribozyme fitness (log ratio)” value is reported as -0.491.
With C51U C93G A120C G143C the “polymerase ribozyme fitness (log ratio)” value was -4.17.
In the case of G67U C118U, the “polymerase ribozyme fitness (log ratio)” value is reported as -2.87.
For A138C U144G, the “polymerase ribozyme fitness (log ratio)” value was -3.7.
For A40U G94A G126A, the “polymerase ribozyme fitness (log ratio)” value was -0.19.
For C27G A29C C87G A121U, the “polymerase ribozyme fitness (log ratio)” value was no more than -4.2.
For A21U G34A G83C, the “polymerase ribozyme fitness (log ratio)” value was -2.46.
For U56A G70A G81C, the “polymerase ribozyme fitness (log ratio)” value was no more than -4.2.
In the case of C69G C75G, the “polymerase ribozyme fitness (log ratio)” value is reported as -2.12.
In the case of C54G G68U C87A U104G, the “polymerase ribozyme fitness (log ratio)” value is reported as no more than -4.2.
For C103G G143U, the “polymerase ribozyme fitness (log ratio)” value was no more than -4.2.
For U45G A52U U55A A73U C85U G117A C149A, the “polymerase ribozyme fitness (log ratio)” value was no more than -4.2.
With C54U C95A the “polymerase ribozyme fitness (log ratio)” value was -1.44.
For A19U A52G G94C, the “polymerase ribozyme fitness (log ratio)” value was -1.72.
With G11C A23C G58A G81C C87A A138U the “polymerase ribozyme fitness (log ratio)” value was no more than -4.2.
In the case of A17U C87U U90C C99G, the “polymerase ribozyme fitness (log ratio)” value is reported as -3.69.
In the case of A23U C108A G143C, the “polymerase ribozyme fitness (log ratio)” value is reported as no more than -4.2.
For U33A A60C G74A A137C A150U, the “polymerase ribozyme fitness (log ratio)” value was no more than -4.2.
With C8U C18A A20C A23C G62C A89G G136U the “polymerase ribozyme fitness (log ratio)” value was no more than -4.2.
For U53A G94C, the “polymerase ribozyme fitness (log ratio)” value was -1.3.
With G48A C75U C87A G143A the “polymerase ribozyme fitness (log ratio)” value was no more than -4.2.
With A16C A89G the “polymerase ribozyme fitness (log ratio)” value was -2.25.
For C5U C8G A12G A19U U55G C87A C96G A147C, the “polymerase ribozyme fitness (log ratio)” value was no more than -4.2.
In the case of G48C G83U, the “polymerase ribozyme fitness (log ratio)” value is reported as -1.41.
For C32G C35U C72G A106C, the “polymerase ribozyme fitness (log ratio)” value was no more than -4.2.
With A17U C116U the “polymerase ribozyme fitness (log ratio)” value was -0.46.
With A52U U109G the “polymerase ribozyme fitness (log ratio)” value was -3.48.
For C14G A22G G25A A28C G50C G84U U104G, the “polymerase ribozyme fitness (log ratio)” value was no more than -4.2.
With U45A G94A the “polymerase ribozyme fitness (log ratio)” value was -2.81.
For A23G U44G U53G A91C C95U C103A G117A A121C G126A, the “polymerase ribozyme fitness (log ratio)” value was no more than -4.2.
For G59U C93A, the “polymerase ribozyme fitness (log ratio)” value was -3.58.
With C63U A122U the “polymerase ribozyme fitness (log ratio)” value was 0.751.
For U7C C27G C96U, the “polymerase ribozyme fitness (log ratio)” value was no more than -4.2.
In the case of G81A C87U A97C U101A U104G C116U, the “polymerase ribozyme fitness (log ratio)” value is reported as -4.01.
In the case of U44C C54U, the “polymerase ribozyme fitness (log ratio)” value is reported as -3.56.
With G25U C93A A147G the “polymerase ribozyme fitness (log ratio)” value was no more than -4.2.
In the case of A17C C27U G71A C93G A113C U134G U151G, the “polymerase ribozyme fitness (log ratio)” value is reported as no more than -4.2.
In the case of C8U A16U A21C G67U C87U, the “polymerase ribozyme fitness (log ratio)” value is reported as no more than -4.2.
With G67A A89G G92C C93A C116U A122C U127C the “polymerase ribozyme fitness (log ratio)” value was no more than -4.2.
With C14G C27G U55G G68A U82A G94C A107U A142G the “polymerase ribozyme fitness (log ratio)” value was no more than -4.2.
With A19C G94C U102G the “polymerase ribozyme fitness (log ratio)” value was no more than -4.2.
With A24U A49C C54U C75G C85A A122U U144C A147C the “polymerase ribozyme fitness (log ratio)” value was no more than -4.2.
For C10U A19U A21U C32G G42A G80C A137U, the “polymerase ribozyme fitness (log ratio)” value was no more than -4.2.
In the case of A16U A37U C79A C99U U139A A142U, the “polymerase ribozyme fitness (log ratio)” value is reported as no more than -4.2.
For A17C A19G C51U G59U C75A A91U C116G A121C, the “polymerase ribozyme fitness (log ratio)” value was no more than -4.2.
In the case of A40U G92A A120U C132A G141C, the “polymerase ribozyme fitness (log ratio)” value is reported as no more than -4.2.
With G48C G59A C85U C129A the “polymerase ribozyme fitness (log ratio)” value was -4.08.
In the case of G58A C87A A91C C99U, the “polymerase ribozyme fitness (log ratio)” value is reported as no more than -4.2.
In the case of U7G A24C C43A A47G C75U C85A G86A C103G, the “polymerase ribozyme fitness (log ratio)” value is reported as no more than -4.2.
For C35G G94C U101C A115C, the “polymerase ribozyme fitness (log ratio)” value was no more than -4.2.
In the case of A16U C87U, the “polymerase ribozyme fitness (log ratio)” value is reported as -2.65.
In the case of A37G C54U, the “polymerase ribozyme fitness (log ratio)” value is reported as -2.05.
For A22C G42U A49G C51U G92A U130G, the “polymerase ribozyme fitness (log ratio)” value was no more than -4.2.
In the case of G50C C54U C87A U135C U144C, the “polymerase ribozyme fitness (log ratio)” value is reported as no more than -4.2.
In the case of A21U C96A G136A, the “polymerase ribozyme fitness (log ratio)” value is reported as 0.203.
With C69U C85U the “polymerase ribozyme fitness (log ratio)” value was -1.39.
In the case of A20G U56A, the “polymerase ribozyme fitness (log ratio)” value is reported as -0.723.
For A52G A60U G71A A121U U135G U148A, the “polymerase ribozyme fitness (log ratio)” value was -4.18.
For A3C U7A C10U U53A G92C A138G, the “polymerase ribozyme fitness (log ratio)” value was no more than -4.2.
In the case of C87G G92C C105U, the “polymerase ribozyme fitness (log ratio)” value is reported as 0.371.
In the case of C85U A91C C105U, the “polymerase ribozyme fitness (log ratio)” value is reported as no more than -4.2.
For U53G, the “polymerase ribozyme fitness (log ratio)” value was -1.68.
For C129G G143A, the “polymerase ribozyme fitness (log ratio)” value was -2.23.
In the case of A22C U56A C57U U104G U135C, the “polymerase ribozyme fitness (log ratio)” value is reported as -3.35.
With A26U C125A the “polymerase ribozyme fitness (log ratio)” value was -1.8.

Source: the RNAGym collection of RNA variant scans (doi:10.1073/pnas.2313332121)
